Data reported in US12427210B2, “Compounds comprising a fibroblast activation protein ligand and use thereof” (priority 2019, dated 2025).

Tests used:
mu (MOP) (h) (human) = mu (MOP) (h) (human) (UniProt P35372); assay: radioligand displacement, reference compound of the assay (Ki Ref)
delta (DOP) (h) (human) = delta (DOP) (h) (human) (UniProt P41143); assay: as above

Ki (mu (MOP) (h) (human))	Ki (delta (DOP) (h) (human))	Substance
0.37 nM		DAMGO (peptide)
	1.2 nM	DPDPE (peptide)
